Measurements taken from the supplement of paper PMC9170038.

System: MS2 coat protein
Assay: apparent KD of MS2 coat protein; designed switch direction (-1 OFF switch, 1 ON switch): -1; higher = weaker reporter binding
In short: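 The reported apparent KD is a per-design median over clusters, from curve fits of normalised cluster fluorescence. Protein titrations used SNAP-549-labelled MS2 coat protein, doubled from 0.7 or 1.5 nM to 3 µM, in Tris-HCl pH 7.5 buffer with KCl, MgCl2, BSA, DTT, tRNA and Tween-20, with no input, 200 uM small-molecule ligand, or an oligonucleotide input. The RNA switches were transcribed on Illumina chips by stalled E. coli RNA polymerase.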

[1] = Eterna round: R95, input ligand: microRNA oligo, concentration not stated
[2] = Eterna round: R95, input ligand: FMN 200 uM
[3] = Eterna round: R95, input ligand: none

Row | Sequence | apparent KD of MS2 coat protein (input ligand: FMN 200 uM) | apparent KD of MS2 coat protein (input ligand: none) | apparent KD of MS2 coat protein [1] | further results
1 | CGAUGUGGAGUGAGGAUAUCGUGUUCGAAAGAACGUGAGAAGGCACAUGAGGAUCACCCAUGUGAUCCAUGUCG [Omei Ex4B A8] (Eterna round: R97, puzzle: Brourd's mod of Exclusion 4) | 31.7 nM | 26.4 nM |  | 
2 | CGCAAAAGGAAGGAUAUGCUAGACGAAAGUCUAGCAGAAGGUCCUACAUGAGGAUCACCCAUGUGUCCUAUGCG [Mat - Exclusion 6 - Eli Mod - D11] (Eterna round: R97, puzzle: Exclusion 6) | 63.1 nM | 46.6 nM |  | 
3 | CGCAACACAUGAGGAUCAAACAUGAGGAUCACCCAUGUAAAACAAGCUUUUUGCUCGUCUUAUAAAUAUGUGUUGCG [Electric Eye 1 - Jieux - Sensor, turn-off variant 1] (Eterna round: R97, puzzle: Sensor, turn-off variant 1) | 18.4 nM | 21 nM |  | 
4 | CGCACACAUGAGGAUCACCCAUGUGAGGAUAUCAUGCUUCGUAGUAAACUACGAAGUGUGAGAAGGCACAUGCC [Omei Ex1 D7] (Eterna round: R97, puzzle: Exclusion 1) | 24.2 nM | 18.4 nM |  | 
5 | CGCAUGUCAGGAUAUCGUGCAUACAACGAAAGUUCUAUGUGCGAGAAGGGACAUGAGGAUCACCCAUGUUAGCG [Omei Ex4 A9] (Eterna round: R97, puzzle: Exclusion 4) | 741 nM | 604 nM |  | 
6 | CGGAUGUAAGGAUAUCGUGCAAGUUUCAAAAGAGGCUUGUGCGAGAAGGUACAUGAGGAUCACCCAUGUAGGUU [Omei Ex4 B6] (Eterna round: R97, puzzle: Exclusion 4) | 157 nM | 75.8 nM |  | 
7 | CGGAUGUGAGGAUAUACAUGAGGAUCACCCAUGUGUGCCAGCUAGAUGACUGGCACUUGUAGAAGGCACGUCUG [Mat - Exclusion 3 - Mod of JL D91] (Eterna round: R96, puzzle: Exclusion 3) | 25.5 nM | 16.1 nM |  | apparent KD of MS2 coat protein (input ligand: microRNA oligo, concentration not stated): 11.3 nM
8 | CGGAUGUGAGGAUAUACAUGAGGAUCACCCAUGUGUGCCAGCUAGAUGACUGGCACUUGUAGAAGGCACGUCUG [Mat - Exclusion 3 - Mod of JL D91] (puzzle: Exclusion 3) |  |  | 11.3 nM | 
9 | CGGAUGUUAGGAUAUUAGUAGUAGUCAGAAUAGACUAUUACUGAGAAGGAACAUGAGGAUCACCCAUGUAUCCG [Eli x4 4.20] (Eterna round: R97, puzzle: Exclusion 4) | 47.4 nM | 17.7 nM |  | 
10 | CGGCAACAUGAGGAUCACCCAUGUUAGGAUAUCGGUGGCUGACACGAAACAGGACCGGUGAGAAGGAGUAUGGU [Eternabot (L1) Solution 2] (Eterna round: R97, puzzle: Exclusion 1) | 39 nM | 39.2 nM |  | 
11 | CGGCGACAUGAGGAUCACCCAUGUGAGGAUAUGACGGGAAAAGCGUGAGCAGUUUGUGUCAGAAGGCGCGUAGG [salish99_ex1_r4_081] (Eterna round: R97, puzzle: Exclusion 1) | 20.2 nM | 28.7 nM |  | 
12 | CGGGCGUGAGGAUAUCCAUCUGGAUCAGACUAGAUCCUGAUGGAGAAGGCACAUGAGGAUCACCCAUGUACCCG [Eli 4x 4.50] (Eterna round: R97, puzzle: Exclusion 4) | 22.2 nM | 18.6 nM |  | 
13 | CGGGUGAUAGGAUAUGACCAAGGUGACAUGAGGAUCACCCAUGUGAUCGUCGUAGACCUGUCAGAAGGGUUCCCGA [Bivevebe] (Eterna round: R97, puzzle: Exclusion 5) | 78.7 nM | 34.9 nM |  | 
14 | CGGUACUGAGGAUAUACAUGAGGAUCACCCAUGUGUUCUAGCUAGCGUACUGGCAUUUGUAGAAGGCGGUGCUG [JL-ex3-3.23 Brourd mod] (puzzle: Exclusion 3) |  |  | 16.4 nM | 
15 | CGGUGCUGAGGAUAUACAUGAGGAUCACCCAUGUGUGCCAGCUAGCUGACUGGCACUUGUAGAAGGCAGUACUG [JL-ex3-2.13 Brourd mod] (puzzle: Exclusion 3) |  |  | 12.4 nM | 
16 | CGGUGCUGAGGAUAUACAUGAGGAUCACCCAUGUGUUCUAGCUAGCGUACUGGCAGAUGUAGAAGGCGGUACUG [JL-ex3-3.43 Brourd mod] (puzzle: Exclusion 3) |  |  | 17.1 nM | 
17 | CGUAGCAAUGUGAGGAUAUCUAGAGCUUCGGCUCUAGAGAAGGCACAUGAGGAUCACCCAUGUGAUUAGCUACG [BmEx4/9-B1] (Eterna round: R97, puzzle: Brourd's mod of Exclusion 4) | 989 nM | 347 nM |  | 
18 | CGUAGCAUUGUGAGGAUAUCUAGAGCUUCGGCUCUAGAGAAGGCACAUGAGGAUCACCCAUGUGAUUAGCUACG [BmEx4/9-C1] (Eterna round: R97, puzzle: Brourd's mod of Exclusion 4) | 1760 nM | 111 nM |  | 
19 | CGUAGUCUUCGGACUACGAACAUGAGGAUCACCCAUGUAAUGAGCAGAUCCUCAUGCAAGCUUUUUGCUCGUCUUAU [Sensor v3 - turn-off variant 1 - 46] (puzzle: Sensor v3, turn-off variant 1) |  |  | 11.5 nM | apparent KD of MS2 coat protein [2]: 13.8 nM; apparent KD of MS2 coat protein [3]: 20.7 nM
20 | CGUAGUCUUCGGACUACGAACAUGAGGAUCACCCAUGUAUAGAGCAGAUCUUCAUGCAAGCUUUUUGCUCGUCUUAU [Sensor v3 - turn-off variant 1 - 48] (puzzle: Sensor v3, turn-off variant 1) |  |  | 10.8 nM | apparent KD of MS2 coat protein [2]: 82 nM; apparent KD of MS2 coat protein [3]: 86.6 nM
21 | CGUCAGUGAGGAUAUGGUAUCGUUUACAUGAGGAUCACCCAUGUUUCAUGGGACUAGAGACUAGAAGGUACUGACG [EX5 #43] (Eterna round: R97, puzzle: Exclusion 5) | 408 nM | 579 nM |  | 
22 | CGUCAUCAAGUCAGGAUAUCGUCAAAUCAAUCAGGCGAGAAGGGACAUGAGGAUCACCCAUGUCGACUCAUCAC [Ex4 #3] (Eterna round: R97, puzzle: Brourd's mod of Exclusion 4) | 24.9 nM | 21.3 nM |  | 
23 | CGUCCGGCUUCCCUUCAAGACAUGAGGAUCACCCAUGUUUUUGUUUUUGCGAGCUUUUUGCUUUUUGCUCGUCUUGU [Even Better Attempt 2] (puzzle: Sensor v3, turn-off variant 1) |  |  | 13 nM | apparent KD of MS2 coat protein [2]: 20.2 nM; apparent KD of MS2 coat protein [3]: 18.7 nM
24 | CGUCCUCUAGUUAGGAUAUUGUCUCGGAUACGAAACAAGAAGGGACAUGAGGAUCACCCAUGUAAUGAGGACGA [Malc #30 mod 16] (puzzle: Brourd's mod of Exclusion 4) |  |  | 27.3 nM | 
